Experimental data: patent US20200054723A1 (ALLAKOS, published 2020)
Changes are numbered by the printed parent chain. Values joined by “and” are separate entries in the source; they are usually repeats but may differ in a detail not shown here. Equal values may be shown once. Values belong to the binder of their own block, whether it stands above or below them.

Legend:
[1] = biological target: T1, Dimeric Siglec-8 (human Siglec-8 ECD protein) (human, UniProt Q9NYZ4 17-363); assay: SPR (Biacore), antibody captured, dimeric Siglec-8 as analyte, 1:1 global fit (avidity)
T1 construct: extracellular domain; Analyte of the Biacore avidity assay
Protocol: Antibody avidity determination was carried out by SPR analysis using a Biacore T200. Binding of human Siglec-8 ECD protein to mouse, chimeric and humanized anti-Siglec-8 antibodies was measured on a […]. The capture antibodies (goat-anti-human-Fc and goat-anti-mouse-Fc from Jackson Immunoresearch) were immobilized on a CM5 chip according to manufacturer's protocol (Biacore, GE). Flow-cell 1, 2 and 3 were immobilized with anti-human, and flow cell 4 with anti-mouse antibodies. The assay was conducted at 25° C., at a flow rate of […]. Assay buffer was 20 mM Tris-HCl pH 8.3, 150 mM Sodium Chloride, 0.05% Polysorbate 20, 10% glycerol, 0.1% BSA, made in ultrapure water. Dimeric Siglec-8 (impurities of monomeric and oligomeric Siglec-8 were removed by size-exclusion chromatography) was diluted in assay buffer from 15 nM to […] with 2× dilutions. Antibodies were captured to a change of approximately 120 RU. Six-minute high performance injections were conducted, followed by 120-minute dissociations. Flow cells were regenerated with 50 mM glycine pH 1.5. Results were double blanked with an empty reference cell and multiple assay buffer injections, and analyzed with 1:1 global fit parameters.

[2] = biological target: T2, recombinant human Siglec-8 extracellular domain (ECD) (human, UniProt Q9NYZ4 17-363); assay: ELISA, coated Siglec-8 ECD
T2 construct: extracellular domain; also called Siglec-8 ECD; full Siglec-8 ECD

[3] = biological target: T3, Siglec-8-Fc tagged protein (human Siglec-8 extracellular domain fused to an immunoglobulin Fc region) (human); assay: BLI (Octet Red 384), Siglec-8-Fc on anti-human capture sensors, Fab in solution
T3 construct: also called Siglec-8 Fc fusion protein
Protocol: Antibody affinity determination was also carried out by bio-layer interferometry (ForteBio). Binding of mouse, chimeric and humanized anti-Siglec-8 antibody Fab fragments to human Siglec-8 protein was measured on a ForteBio Octet Red 384. The assay was conducted at 25° C., at an RPM of 1000 in assay buffer. […] Fab fragments (antibodies were digested with Thermo-Pierce immobilized papain per manufacturer's specifications) were diluted in assay buffer from 50 nM to 1.56 nM with 2× dilutions. The Siglec-8-Fc tagged protein was immobilized on Anti-Human-Capture sensors at 100 nM in assay buffer for 3 min to a change in nm of approximately 1.2. Two-minute associations were conducted, followed by 10-minute dissociations. Results were blanked with an empty reference AHC sensor, and analyzed in ForteBio analysis software with 1:1 global fit parameters.

[4] = biological target: human Siglec-8 on human cells (eosinophils, mast cells) (human, UniProt Q9NYZ4 17-499); assay: cell-based or functional assay
[5] = biological target: T2, recombinant human Siglec-8 …; assay: ELISA, coated Siglec-8 ECD; remark: listed apart in the source

human Siglec-8 on human cells (eosinophils, mast cells), sequence (Q9NYZ4 17-499): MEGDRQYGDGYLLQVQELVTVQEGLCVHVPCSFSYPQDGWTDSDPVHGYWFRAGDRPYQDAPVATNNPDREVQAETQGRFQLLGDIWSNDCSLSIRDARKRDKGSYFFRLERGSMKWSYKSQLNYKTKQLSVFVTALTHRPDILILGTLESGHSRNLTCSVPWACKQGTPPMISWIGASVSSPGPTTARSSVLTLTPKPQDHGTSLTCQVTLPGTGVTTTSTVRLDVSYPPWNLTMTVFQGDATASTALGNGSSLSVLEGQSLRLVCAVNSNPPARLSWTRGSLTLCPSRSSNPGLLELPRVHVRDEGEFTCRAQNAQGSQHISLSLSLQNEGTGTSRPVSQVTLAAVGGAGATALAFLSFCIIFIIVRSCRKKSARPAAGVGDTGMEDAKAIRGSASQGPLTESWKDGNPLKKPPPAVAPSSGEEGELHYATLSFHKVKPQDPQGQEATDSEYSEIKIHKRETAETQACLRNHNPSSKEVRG
T2 sequence (Q9NYZ4 17-363): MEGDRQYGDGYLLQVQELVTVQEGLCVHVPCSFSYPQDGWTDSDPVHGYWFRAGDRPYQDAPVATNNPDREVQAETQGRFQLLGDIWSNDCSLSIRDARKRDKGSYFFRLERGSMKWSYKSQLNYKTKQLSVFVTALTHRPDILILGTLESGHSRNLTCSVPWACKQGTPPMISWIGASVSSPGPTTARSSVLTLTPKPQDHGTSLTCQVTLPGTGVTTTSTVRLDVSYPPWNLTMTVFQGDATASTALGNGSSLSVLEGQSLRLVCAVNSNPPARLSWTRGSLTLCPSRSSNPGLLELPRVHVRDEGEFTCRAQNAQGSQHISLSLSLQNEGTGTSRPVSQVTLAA
T1 sequence (Q9NYZ4 17-363): as above
T3 sequence (chain, as listed by the source limits assumed): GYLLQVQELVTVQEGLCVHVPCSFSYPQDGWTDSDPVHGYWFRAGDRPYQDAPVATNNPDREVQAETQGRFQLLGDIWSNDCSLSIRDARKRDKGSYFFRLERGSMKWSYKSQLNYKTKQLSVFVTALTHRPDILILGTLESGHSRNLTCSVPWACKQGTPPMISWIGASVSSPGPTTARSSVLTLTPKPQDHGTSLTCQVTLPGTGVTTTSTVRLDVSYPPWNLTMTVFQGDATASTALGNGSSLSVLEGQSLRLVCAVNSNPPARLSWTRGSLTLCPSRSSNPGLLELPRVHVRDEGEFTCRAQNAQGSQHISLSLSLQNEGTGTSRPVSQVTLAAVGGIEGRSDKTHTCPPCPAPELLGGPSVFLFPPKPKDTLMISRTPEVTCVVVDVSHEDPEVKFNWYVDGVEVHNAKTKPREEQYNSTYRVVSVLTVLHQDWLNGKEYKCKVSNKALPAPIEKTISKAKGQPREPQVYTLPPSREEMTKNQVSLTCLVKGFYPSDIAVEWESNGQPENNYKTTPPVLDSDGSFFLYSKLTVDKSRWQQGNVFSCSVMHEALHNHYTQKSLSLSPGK

Kd [1]: 16 pM
koff [1]: 1.32e-05 s⁻¹
kon [1]: 851000 M⁻¹ s⁻¹
EC50 [2]: 62 pM and 44 pM and 43 pM
B1: chimeric 2E2 antibody (antibody, human IgG1, kappa)
heavy: not shown
light: QIILTQSPAIMSASPGEKVSITCSATSSVSYMHWFQQKPGTSPKLWIYSTSNLASGVPVRFSGSGSGTSYSLTISRMEAEDAATYYCQQRSSYPFTFGSGTKLEIKRTVAAPSVFIFPPSDEQLKSGTASVVCLLNNFYPREAKVQWKVDNALQSGNSQESVTEQDSKDSTYSLSSTLTLSKADYEKHKVYACEVTHQGLSSPVTKSFNRGEC
notes: human IgG1/kappa; also called ch2E2; ch2E2 purified

Kd [3]: 585 pM
koff [3]: 0.000556 s⁻¹
kon [3]: 951000 M⁻¹ s⁻¹
B2: chimeric 2E2 Fab fragment (Fab)
VH: QVQLKESGPGLVAPSQSLSITCTVSGFSLTIYGAHWVRQPPGKGLEWLGVIWAGGSTNYNSALMSRLSISKDNSKSQVFLKINSLQTDDTALYYCARDGSSPYYYSMEYWGQGTSVTVSS
light: B1 light
notes: Fab made by papain digestion of the human IgG1 chimeric antibody

Kd [3]: 536 pM
koff [3]: 0.000612 s⁻¹
kon [3]: 1.14e+06 M⁻¹ s⁻¹
B3: mouse 2E2 Fab fragment (Fab)
VH: B2 VH
light: QIILTQSPAIMSASPGEKVSITCSATSSVSYMHWFQQKPGTSPKLWIYSTSNLASGVPVRFSGSGSGTSYSLTISRMEAEDAATYYCQQRSSYPFTFGSGTKLEIKADAAPTVSIFPPSSEQLTSGGASVVCFLNNFYPKDINVKWKIDGSERQNGVLNSWTDQDSKDSTYSMSSTLTLTKDEYERHNSYTCEATHKTSTSPIVKSFNRNEC
notes: Fab made by papain digestion of the murine IgG1; also called murine 2E2 Fab

Mean EC50 (ng/ml) for eosinophil depletion [4]: 3.9 ng/mL
B4: HEKA IgG4 antibody (antibody)
heavy: not shown
light: EIVLTQSPATLSLSPGERATLSCSATSSVSYMHWFQQKPGQAPRLLIYSTSNLASGIPARFSGSGSGTDFTLTISSLEPEDFAVYYCQQRSSYPFTFGPGTKLDIKRTVAAPSVFIFPPSDEQLKSGTASVVCLLNNFYPREAKVQWKVDNALQSGNSQESVTEQDSKDSTYSLSSTLTLSKADYEKHKVYACEVTHQGLSSPVTKSFNRGEC

EC50 [2]: 124000 pM
B5: HA2KB (antibody, human IgG1, V domains shown)
VH: QVQLQESGPGLVKPSETLSLTCTVSGGSISIYGAHWIRQPPGKGLEWIGVIWAGGSTNYNSALMSRVTISVDTSKNQFSLKLSSVTAADTAVYYCARDGSSPYYYSMEYWGQGTLVTVSS
VL: EIILTQSPATLSLSPGERATLSCSATSSVSYMHWFQQKPGQAPRLWIYSTSNLASGVPARFSGSGSGTDYTLTISSLEPEDFAVYYCQQRSSYPFTFGPGTKLDIK
notes: human IgG1/kappa

EC50 [2]: 51 pM
B6: HB2KA (antibody, human IgG1, V domains shown)
VH: B5 VH with G27F, I29L, S30T, I37V, I48L, V67L, T68S, V71K, T73N, F78V
VL: B5 VL with I3V, W46L, V57I, Y70F
notes: human IgG1/kappa

EC50 [2]: 27 pM
B7: cVHKB (antibody, human IgG1, V domains shown)
VH: B2 VH
VL: B5 VL
notes: human IgG1/kappa

EC50 [2]: 31600 pM
B8: HA2KFmut (antibody, human IgG1, V domains shown)
VH: B5 VH
VL: B5 VL with I3V, W46L, V57I, F95Y
notes: human IgG1/kappa

EC50 [2]: 101 pM
B9: HB2KC (antibody, human IgG1, V domains shown)
VH: B5 VH with G27F, I29L, S30T, I37V, I48L, V67L, T68S, V71K, T73N, F78V
VL: B5 VL with W46L, V57I, Y70F
notes: human IgG1/kappa

EC50 [2]: 227 pM
B10: HB2KG (antibody, V domains shown)
VH: B5 VH with G27F, I29L, S30T, I37V, I48L, V67L, T68S, V71K, T73N, F78V
VL: B5 VL with I3V, F35Y, W46L, V57I, Y70F
notes: human IgG1/kappa

binding result [5]: no binding
B11: HA2KE (antibody, human IgG1, V domains shown)
VH: B5 VH
VL: B5 VL with I3V, W46L, Y70F
notes: human IgG1/kappa

binding result [5]: no binding
B12: HA2KD (antibody, human IgG1, V domains shown)
VH: B5 VH
VL: B5 VL with I3V, V57I, Y70F
notes: human IgG1/kappa

Kd [1]: 21 pM
koff [1]: 1.4e-05 s⁻¹
kon [1]: 678000 M⁻¹ s⁻¹
EC50 [2]: 64 pM and 74 pM and 52 pM and 97 pM
Mean EC50 (ng/ml) for eosinophil depletion [4]: 6.7 ng/mL
B13: HEKF IgG1 antibody (antibody, V domains shown)
VH: EVQLVESGGGLVQPGGSLRLSCAASGFSLTIYGAHWVRQAPGKGLEWVGVIWAGGSTNYNSALMSRFTISKDNSKNTVYLQMNSLRAEDTAVYYCARDGSSPYYYSMEYWGQGTTVTVSS
VL: EIVLTQSPATLSLSPGERATLSCSATSSVSYMHWFQQKPGQAPRLLIYSTSNLASGIPARFSGSGSGTDYTLTISSLEPEDFAVYYCQQRSSYPFTFGPGTKLDIKR
notes: also called HEKF T2

Kd [3]: 464 pM
koff [3]: 0.000482 s⁻¹
kon [3]: 1.04e+06 M⁻¹ s⁻¹
B14: HEKA Fab fragment (Fab)
VH: B13 VH
light: B4 light
notes: Fab made by papain digestion

EC50 [2]: 66 pM
B15: HBcVK (antibody, human IgG1, V domains shown)
VH: B13 VH with A24V, V48L, F67L, T68S
VL: QIILTQSPAIMSASPGEKVSITCSATSSVSYMHWFQQKPGTSPKLWIYSTSNLASGVPVRFSGSGSGTSYSLTISRMEAEDAATYYCQQRSSYPFTFGSGTKLEIK
notes: human IgG1/kappa

EC50 [2]: 215 pM
B16: RHE Y-VKC (antibody, human IgG1, V domains shown)
VH: B13 VH with Y109V
VL: B5 VL with W46L, V57I, Y70F
notes: human IgG1/kappa

EC50 [2]: 91 pM
B17: RHE Y-VKF (antibody, human IgG1, V domains shown)
VH: B13 VH with Y109V
VL: B5 VL with I3V, W46L, V57I
notes: human IgG1/kappa

EC50 [2]: 72 pM
Mean EC50 (ng/ml) for eosinophil depletion [4]: 6.9 ng/mL
B18: HEKFmut (antibody, human IgG1, V domains shown)
VH: B13 VH
VL: B5 VL with I3V, W46L, V57I, F95Y
notes: human IgG1/kappa; also called HEKFmut IgG1

EC50 [2]: 67 pM
B19: HAcVK (antibody, human IgG1, V domains shown)
VH: B13 VH with G49S
VL: B15 VL
notes: human IgG1/kappa

EC50 [2]: 70 pM
B20: RHE Y-VKE (antibody, human IgG1, V domains shown)
VH: B13 VH with Y109V
VL: B5 VL with I3V, W46L, Y70F
notes: human IgG1/kappa

EC50 [2]: 8810 pM
B21: RHE Y-VKG (antibody, human IgG1, V domains shown)
VH: B13 VH with Y109V
VL: B5 VL with I3V, F35Y, W46L, V57I, Y70F
notes: human IgG1/kappa

EC50 [2]: 283 pM
B22: RHE Y-VKD (antibody, human IgG1, V domains shown)
VH: B13 VH with Y109V
VL: B5 VL with I3V, V57I, Y70F
notes: human IgG1/kappa

EC50 [2]: 398 pM
B23: RHE Y-VKFmut (antibody, human IgG1, V domains shown)
VH: B13 VH with Y109V
VL: B5 VL with I3V, W46L, V57I, F95Y
notes: human IgG1/kappa

Mean EC50 (ng/ml) for eosinophil depletion [4]: 43.3 ng/mL
B24: HEKAmut IgG1 antibody (antibody, V domains shown)
VH: B13 VH
VL: B5 VL with I3V, W46L, V57I, Y70F, F95Y

Kd [3]: 592 pM
koff [3]: 0.000545 s⁻¹
kon [3]: 920000 M⁻¹ s⁻¹
B25: HEKF Fab fragment (Fab)
VH: B13 VH
light: B4 light with F70Y
notes: Fab made by papain digestion
